The values that follow come from article PMC10669680.

The term stoichiometry N denotes a count of units in the complex or per binding partner.

This experiment deals with HIV-1 reverse transcriptase p51 (isolated polymerase domain) with the C38V/C280S/M357T substitutions, no affinity tag (HIV-1). As to the kind of experiment: SEC; Superdex 200 Increase 5/150, SEC buffer 50 mM Bis-Tris, 1 M NaCl, 1 mM CDTA, pH 6.5; samples 80% SEC buffer, 20% glycerol; [NaCl] varied 0.15-1.0 M and [p51] varied 10-80 µM; monomer to dimer.

As for “HIV-1 reverse transcriptase p51 (isolated polymerase domain) with the C38V/C280S/M357T substitutions, no affinity tag (domain or fragment)”, the stoichiometry N worked out at 2.
